Source: publication PMC11647504, “The GPCR adaptor protein Norbin controls the trafficking of C5aR1 and CXCR4 in mouse neutrophils” (The Journal of Biological Chemistry, 2024)

T1: Recombinant His-Norbin (His-tagged rat Norbin protein) (rat, UniProt O35095 1-729)
T1 construct: Norbin (Neurochondrin), rat, full-length construct; 98% identical to human Norbin; also called Neurochondrin; NCDN; source: M15 [pREP4] bacteria, inclusion bodies solubilized in 6 M guanidine hydrochloride, renatured by dialysis, purified; not shown: 6xHis, C-terminal, kept
T1 sequence (looked up): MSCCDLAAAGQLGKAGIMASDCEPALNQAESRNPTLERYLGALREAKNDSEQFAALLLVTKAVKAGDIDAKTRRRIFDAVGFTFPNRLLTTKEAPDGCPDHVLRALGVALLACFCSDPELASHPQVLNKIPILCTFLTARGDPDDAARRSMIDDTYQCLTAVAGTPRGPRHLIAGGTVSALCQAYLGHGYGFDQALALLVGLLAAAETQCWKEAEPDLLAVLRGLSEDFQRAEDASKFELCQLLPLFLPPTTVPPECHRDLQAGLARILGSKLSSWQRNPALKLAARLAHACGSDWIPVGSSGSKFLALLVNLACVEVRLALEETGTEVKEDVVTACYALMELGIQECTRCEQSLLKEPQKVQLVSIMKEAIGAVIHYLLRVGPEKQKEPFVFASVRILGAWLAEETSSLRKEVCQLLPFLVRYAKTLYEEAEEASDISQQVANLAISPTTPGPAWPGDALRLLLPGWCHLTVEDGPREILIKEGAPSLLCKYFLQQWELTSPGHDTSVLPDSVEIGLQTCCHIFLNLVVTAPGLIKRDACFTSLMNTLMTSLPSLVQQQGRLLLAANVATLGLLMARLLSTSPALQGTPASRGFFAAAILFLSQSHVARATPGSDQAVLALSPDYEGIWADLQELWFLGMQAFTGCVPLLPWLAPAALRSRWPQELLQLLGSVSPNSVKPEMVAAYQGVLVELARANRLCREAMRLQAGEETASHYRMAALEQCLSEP

B1: GST-tagged C-terminal tail of MCH1 (melanin-concentrating hormone receptor 1) (domain or fragment)
chain: ANSCLNPFVYIVLCETFRKRLVLSVKPAAQGQLRAVSNAQTADEERTESKGT
notes: In pGEX4T3; Positive control; also called GST-MCH1
B2: GST-tagged C-terminal tail of human CXCR4 (domain or fragment)
chain: FHCCLNPILYAFLGAKFKTSAQHALTSVSRGSSLKILSKGKRGGHSSVSTESESSSFHSS
notes: In pGEX6P1, cloned with BamH1 and Xho1; also called GST-CXCR4
B3: GST-tagged C-terminal tail of human C5aR1 (domain or fragment)
chain: INCCINPIIYVVAGQGFQGRLRKSLPSLLRNVLTEESVVRESKSFTRSTVDTMAQKTQAV
notes: In pGEX4T3, cloned with BamH1 and Xho1; also called GST-C5aR1

target: T1, Recombinant His-Norbin (His-tagged rat …); assay: pull-down; GST-tagged GPCR C-terminal tails (or GST) from bacterial lysates bound to glutathione Sepharose, washed twice in PBS, 2% Triton X-100, 5 mM DTT, incubated with 50 μg purified recombinant His-Norbin for 3 h at 4 °C, washed 3 x in PBS, 1% Triton X-100; western blot with His antibody; conditions: both partners purified

Binding result, binds:
B1, B2, B3
